Experimental data: US20060205646

Key:
bovine serum albumin = bovine serum albumin (UniProt P02769)
[1] = tested on: T1, p26 protein from Artemia franciscana
T1 sequence: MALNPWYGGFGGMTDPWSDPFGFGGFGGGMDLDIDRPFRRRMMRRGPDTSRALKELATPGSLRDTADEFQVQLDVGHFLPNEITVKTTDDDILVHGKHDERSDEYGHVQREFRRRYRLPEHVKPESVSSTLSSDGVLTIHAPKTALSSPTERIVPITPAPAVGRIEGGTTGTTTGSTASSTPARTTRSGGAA

Chain of bovine serum albumin (P02769 25-607): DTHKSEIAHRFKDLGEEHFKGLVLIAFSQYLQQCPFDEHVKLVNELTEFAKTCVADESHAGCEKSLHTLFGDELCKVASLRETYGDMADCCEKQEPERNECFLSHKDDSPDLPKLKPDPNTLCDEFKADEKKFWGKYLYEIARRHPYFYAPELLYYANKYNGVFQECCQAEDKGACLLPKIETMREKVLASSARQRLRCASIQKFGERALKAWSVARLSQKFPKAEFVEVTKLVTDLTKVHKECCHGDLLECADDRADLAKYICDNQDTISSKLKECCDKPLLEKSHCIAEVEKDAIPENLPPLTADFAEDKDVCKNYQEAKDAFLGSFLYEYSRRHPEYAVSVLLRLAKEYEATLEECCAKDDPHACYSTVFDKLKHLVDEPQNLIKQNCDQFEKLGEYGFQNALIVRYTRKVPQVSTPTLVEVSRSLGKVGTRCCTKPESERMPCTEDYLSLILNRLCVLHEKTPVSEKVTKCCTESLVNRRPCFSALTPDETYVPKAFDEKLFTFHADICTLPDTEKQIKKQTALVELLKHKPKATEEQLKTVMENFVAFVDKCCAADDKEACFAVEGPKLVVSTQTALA
Chain of activated recombinant MMP9 (chain, as listed by the source): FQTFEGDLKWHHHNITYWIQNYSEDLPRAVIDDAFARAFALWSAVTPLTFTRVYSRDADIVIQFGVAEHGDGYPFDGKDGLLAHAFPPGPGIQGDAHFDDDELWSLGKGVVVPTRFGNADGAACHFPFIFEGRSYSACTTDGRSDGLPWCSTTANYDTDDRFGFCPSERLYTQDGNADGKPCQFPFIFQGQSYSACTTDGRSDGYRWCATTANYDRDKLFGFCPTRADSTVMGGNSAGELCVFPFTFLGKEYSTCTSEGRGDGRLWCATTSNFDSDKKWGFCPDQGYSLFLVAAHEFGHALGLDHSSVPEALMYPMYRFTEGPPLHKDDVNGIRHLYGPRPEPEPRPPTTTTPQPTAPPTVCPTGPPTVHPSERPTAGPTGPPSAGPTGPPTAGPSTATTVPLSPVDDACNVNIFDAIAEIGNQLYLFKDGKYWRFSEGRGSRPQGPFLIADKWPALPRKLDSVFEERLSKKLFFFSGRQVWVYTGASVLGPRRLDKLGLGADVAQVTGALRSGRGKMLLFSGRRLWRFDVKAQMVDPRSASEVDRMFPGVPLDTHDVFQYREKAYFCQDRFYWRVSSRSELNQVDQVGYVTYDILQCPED
Chain of Heat gamma (chain, as listed by the source): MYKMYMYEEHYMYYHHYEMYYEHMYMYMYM

Substance	cleavage of pET-28a by Nde I after 1 hour pretreatment at 40° C. (agarose gel) (bovine serum albumin)	cleavage of pET-28a by Nde I after 1 hour pretreatment at 40° C. (agarose gel) [1]	cleavage of Fluorogenic Peptide substrate I by 0.270 µg activated recombinant MMP9, 60 µg Heat Gamma (Heat gamma)
Nde I restriction endonuclease	An equivalent amount of BSA (5 µg) did not protect the enzyme any better than the buffer control	In the presence of 5 µg of p26 protein, Nde I remained fully active, and completely cleaved pET-28a	
activated recombinant MMP9			Heat gamma efficiently inhibits the MMP9 activity as indicated by a decrease in relative fluorescence
